The values below come from PMC8894357 (2022).

By Kd is commonly meant the constant that tells how readily two partners part at equilibrium.

For the assay, the target named is T1, Human β-catenin, GST tagged (human, UniProt P35222 1-781).
T1 chain: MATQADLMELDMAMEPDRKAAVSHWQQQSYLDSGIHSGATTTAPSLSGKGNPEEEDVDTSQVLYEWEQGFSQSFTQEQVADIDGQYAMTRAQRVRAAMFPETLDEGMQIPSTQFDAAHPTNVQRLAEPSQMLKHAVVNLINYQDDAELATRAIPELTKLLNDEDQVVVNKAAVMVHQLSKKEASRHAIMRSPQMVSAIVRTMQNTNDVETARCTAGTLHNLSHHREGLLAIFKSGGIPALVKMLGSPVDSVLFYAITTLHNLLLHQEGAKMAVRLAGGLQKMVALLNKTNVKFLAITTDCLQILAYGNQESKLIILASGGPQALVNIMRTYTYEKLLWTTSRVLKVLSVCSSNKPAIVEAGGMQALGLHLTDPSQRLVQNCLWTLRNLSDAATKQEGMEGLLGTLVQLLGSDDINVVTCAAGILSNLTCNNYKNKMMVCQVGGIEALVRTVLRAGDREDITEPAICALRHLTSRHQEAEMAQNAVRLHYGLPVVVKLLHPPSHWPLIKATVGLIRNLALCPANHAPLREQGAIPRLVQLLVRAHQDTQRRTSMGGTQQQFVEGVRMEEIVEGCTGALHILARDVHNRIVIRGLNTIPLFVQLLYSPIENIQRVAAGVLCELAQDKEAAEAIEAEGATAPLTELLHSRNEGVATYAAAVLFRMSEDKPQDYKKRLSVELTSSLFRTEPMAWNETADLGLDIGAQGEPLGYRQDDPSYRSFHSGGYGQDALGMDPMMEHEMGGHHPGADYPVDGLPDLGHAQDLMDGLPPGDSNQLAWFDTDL

B1: αE-catenin, monomeric fraction (mouse, full length, His(6x) tagged) (natural protein)
chain: MTAVHAGNINFKWDPKSLEIRTLAVERLLEPLVTQVTTLVNTNSKGPSNKKRGRSKKAHVLAASVEQATENFLEKGDKIAKESQFLKEELVVAVEDVRKQGDLMKSAAGEFADDPCSSVKRGNMVRAARALLSAVTRLLILADMADVYKLLVQLKVVEDGILKLRNAGNEQDLGIQYKALKPEVDKLNIMAAKRQQELKDVGNRDQMAAARGILQKNVPILYTASQACLQHPDVAAYKANRDLIYKQLQQAVTGISNAAQATASDDAAQHQGGSGGELAYALNNFDKQIIVDPLSFSEERFRPSLEERLESIISGAALMADSSCTRDDRRERIVAECNAVRQALQDLLSEYMGNAGRKERSDALNSAIDKMTKKTRDLRRQLRKAVMDHVSDSFLETNVPLLVLIEAAKNGNEKEVKEYAQVFREHANKLIEVANLACSISNNEEGVKLVRMSASQLEALCPQVINAALALAAKPQSKLAQENMDLFKEQWEKQVRVLTDAVDDITSIDDFLAVSENHILEDVNKCVIALQEKDVDGLDRTAGAIRGRAARVIHVVTSEMDNYEPGVYTEKVLEATKLLSNTVMPRFTEQVEAAVEALSSDPAQPMDENEFIDASRLVYDGIRDIRKAVLMIRTPEELDDSDFETEDFDVRSRTSVQTEDDQLIAGQSARAIMAQLPQEQKAKIAEQVASFQEEKSKLDAEVSKWDDSGNDIIVLAKQMCMIMMEMTDFTRGKGPLKNTSDVISAAKKIAEAGSRMDKLGRTIADHCPDSACKQDLLAYLQRIALYCHQLNICSKVKAEVQNLGGELVVSGVDSAMSLIQAAKNLMNAVVQTVKASYVASTKYQKSQGMASLNLPAVSWKMKAPEKKPLVKREKQDETQTKIKRASQKKHVNPVQALSEFKAMDSI
As for B1, binding was characterised by a dissociation constant (Kd) of 35 nM.
